# Data: US20160368974A1 (UMC UTRECHT HOLDING B V, published 2016)
# Positions count from the first letter of the chain named. Ends that are not written are not given here.
# B1: antibody 17G8.72 (antibody, V domains shown)
# VH: DVQLQESGPDLVKPSQSLSLTCTVTGYSIASGYSWHWIRQFPGNKLEWMGYIHFSGSANYNPSLKSRISITRDTSKNQFFLQLNSVTTEDTATYYCASEARGYFDYWGQGTTLTVSS
# VL: DVLMTQTPLSLPVSLGDQASISCRSSQSIVRSNGNTYLTWYLQKPGQSPKLLIYKVSNRFSGVPDRFSGSGSGTDFTLKISRVEAEDLGVYFCFQGSHVPPTFGSGTKLEIKR
# notes: Monoclonal antibody against the EDA domain of fibronectin-EDA; also called 17G8.7VL
# B2: antibody 27A12.70 (antibody, V domains shown)
# VH: B1 VH with A30T, F54Y, S57I, Q78H, S98T, A100K, R101T, Y103F
# VL: B1 VL with L3V, I29L, R31H, T39H, F94S, G96S, S97A, S105G
# notes: Murine monoclonal antibody against the EDA domain of fibronectin-EDA
# B3: antibody 29E7.35 (antibody, V domains shown)
# VH: B1 VH with D1A, Q16H, A30T, F54Y, I68F, S98T, A100K, R101T, Y103F
# VL: B1 VL with L3V, I29L, R31H, T39H, F94S, G96S, S97A, S105G
# notes: Monoclonal antibody against the EDA domain of fibronectin-EDA
# Assays:
# Assay in all cases: PEPSCAN-based ELISA, peptide linked to card
# [1] = target: T1, peptide …
# T1 sequence (peptide): TYSSPEDAIHELFP
# [2] = target: T2, peptide …; remark: listed apart in the source
# T2 sequence (peptide): TYSSPEDGAHELFP
# [3] = target: T3, peptide …; remark: listed apart in the source
# T3 sequence (peptide): TYSSPEDGIHELAP
# peptide TASSPEDGIHELFP = target: T4, peptide TASSPEDGIHELFP (also: covalently linked to a PEPSCAN card)
# T4 construct: also called replaced amino acid Y
# T4 peptide: TASSPEDGIHELFP
# Description: (§1) The binding of antibody to each peptide was tested in a PEPSCAN-based ELISA. The 455-well credit card format polypropylene cars containing the covalently linked peptides were incubated with primary antibody solution consisting of 0.05 micrograms antibody/mL diluted in blocking solution, i.e., 4% horse serum, 5% ovalbumin (w/v) in PBS/0.1% Tween. After washing, the peptides were incubated with a 1/1000 dilution of antibody peroxidase conjugate for one hour at 25° C. After washing, the peroxidase substrate 2,2′-azino-di-3-ehtylbenzthiazoline sulfonate (ABTS) and 2 microliters of 3 percent H₂O₂ were added. After one hour, the colour development was measured. The colour development was quantified with a charge coupled device (CCD)-camera and an image processing system (as firstly described in Slootstra et al. Mol Divers. 1996 February; 1(2):87-96).
# (§2) Peptide synthesis, screening assays and data calculation for alanine-scan of fibronectin-EDA epitope are performed as described in Example 1. Peptides based on […] were synthesized wherein in each peptide one amino acid is replaced by an alanine. The peptides were tested for binding by antibodies 27A12.70, 29E7.35, 17G8.72 and 42H11.51.
# peptide TYASPEDGIHELFP = target: T5, peptide TYASPEDGIHELFP (also: covalently linked to a PEPSCAN card)
# T5 construct: also called replaced amino acid S (first)
# T5 peptide: TYASPEDGIHELFP
# Description: as §1, §2
# peptide TYSAPEDGIHELFP = target: T6, peptide TYSAPEDGIHELFP (also: covalently linked to a PEPSCAN card)
# T6 construct: also called replaced amino acid S (second)
# T6 peptide: TYSAPEDGIHELFP
# Description: as §1, §2
# peptide TYSSAEDGIHELFP = target: T7, peptide TYSSAEDGIHELFP (also: covalently linked to a PEPSCAN card)
# T7 construct: also called replaced amino acid P (first)
# T7 peptide: TYSSAEDGIHELFP
# Description: as §1, §2
# peptide TYSSPADGIHELFP = target: T8, peptide TYSSPADGIHELFP (also: covalently linked to a PEPSCAN card)
# T8 construct: also called replaced amino acid E (first)
# T8 peptide: TYSSPADGIHELFP
# Description: as §1, §2
# peptide TYSSPEAGIHELFP = target: T9, peptide TYSSPEAGIHELFP (also: covalently linked to a PEPSCAN card)
# T9 construct: also called replaced amino acid D
# T9 peptide: TYSSPEAGIHELFP
# Description: as §1, §2
# peptide TYSSPEDGIAELFP = target: T10, peptide TYSSPEDGIAELFP (also: covalently linked to a PEPSCAN card)
# T10 construct: also called replaced amino acid H
# T10 peptide: TYSSPEDGIAELFP
# Description: as §1, §2
# peptide TYSSPEDGIHALFP = target: T11, peptide TYSSPEDGIHALFP (also: covalently linked to a PEPSCAN card)
# T11 construct: also called replaced amino acid E (second)
# T11 peptide: TYSSPEDGIHALFP
# Description: as §1, §2
# peptide TYSSPEDGIHEAFP = target: T12, peptide TYSSPEDGIHEAFP (also: covalently linked to a PEPSCAN card)
# T12 construct: also called replaced amino acid L
# T12 peptide: TYSSPEDGIHEAFP
# Description: as §1, §2
# peptide TYSSPEDGIHELFA = target: T13, peptide TYSSPEDGIHELFA (also: covalently linked to a PEPSCAN card)
# T13 construct: also called replaced amino acid P (second)
# T13 peptide: TYSSPEDGIHELFA
# Description: as §1, §2
# peptide TYSSPEDGIHELFP = target: T14, peptide TYSSPEDGIHELFP (also: covalently linked to a PEPSCAN card)
# T14 construct: Synthetic peptide covalently linked to a PEPSCAN card; parent peptide of the alanine scan; also called replaced amino acid: none
# T14 peptide: TYSSPEDGIHELFP
# Description: as §1, §2
# peptide AYSSPEDGIHELFP = target: T15, peptide AYSSPEDGIHELFP (also: covalently linked to a PEPSCAN card)
# T15 construct: also called replaced amino acid T
# T15 peptide: AYSSPEDGIHELFP
# Description: as §1, §2
# [4] = target: T16, peptide …; remark: listed apart in the source
# T16 sequence (peptide): TYSSPEDGIHEAFP
Binder,Antibody binding (arbitrary optical density units) (arbitrary optical density units) [1],Antibody binding (arbitrary optical density units) (arbitrary optical density units) [2],Antibody binding (arbitrary optical density units) (arbitrary optical density units) [3],Antibody binding (arbitrary optical density units) (peptide TASSPEDGIHELFP),Antibody binding (arbitrary optical density units) (peptide TYASPEDGIHELFP),Antibody binding (arbitrary optical density units) (peptide TYSAPEDGIHELFP),Antibody binding (arbitrary optical density units) (peptide TYSSAEDGIHELFP),Antibody binding (arbitrary optical density units) (peptide TYSSPADGIHELFP),Antibody binding (arbitrary optical density units) (peptide TYSSPEAGIHELFP),Antibody binding (arbitrary optical density units) (peptide TYSSPEDGIAELFP),Antibody binding (arbitrary optical density units) (peptide TYSSPEDGIHALFP),Antibody binding (arbitrary optical density units) (peptide TYSSPEDGIHEAFP),Antibody binding (arbitrary optical density units) (peptide TYSSPEDGIHELFA),Antibody binding (arbitrary optical density units) (peptide TYSSPEDGIHELFP),Antibody binding (arbitrary optical density units) (peptide AYSSPEDGIHELFP),Antibody binding (arbitrary optical density units) (arbitrary optical density units) [4]
B1,89,66,106,2670 arbitrary optical density units,2500 arbitrary optical density units,2100 arbitrary optical density units,2090 arbitrary optical density units,2480 arbitrary optical density units,2650 arbitrary optical density units,2560 arbitrary optical density units,2100 arbitrary optical density units,1550 arbitrary optical density units,2160 arbitrary optical density units,2090 arbitrary optical density units,2150 arbitrary optical density units,
B2,122,91,249,2790 arbitrary optical density units,2720 arbitrary optical density units,2680 arbitrary optical density units,2710 arbitrary optical density units,2690 arbitrary optical density units,2750 arbitrary optical density units,2400 arbitrary optical density units,2200 arbitrary optical density units,1780 arbitrary optical density units,2600 arbitrary optical density units,2680 arbitrary optical density units,2710 arbitrary optical density units,
B3,81,74,124,2840 arbitrary optical density units,2740 arbitrary optical density units,2630 arbitrary optical density units,2660 arbitrary optical density units,2630 arbitrary optical density units,2720 arbitrary optical density units,1800 arbitrary optical density units,302 arbitrary optical density units,,2600 arbitrary optical density units,2750 arbitrary optical density units,2780 arbitrary optical density units,194
